Test results reported in the nanobody polyreactivity screen of Harvey et al. (2022).

Experiment: yeast display, Sf9 membrane polyspecificity reagent, FACS + sequencing; frameworks hold sequencing errors
Procedure, shortened: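 Polyreactivity labels are assigned by the sorting gate from which each nanobody was recovered. The gates were low and high (top ~1%), set on anti-HA fluorescence for expression and streptavidin fluorescence for reagent binding. Before sorting, galactose-induced (36–48 hours) yeast display cells were stained for 1 hour at 4 °C with 10% biotinylated, detergent-solubilized Sf9 membrane reagent.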

Sequence	polyreactivity (PSR sort gate)
QVQLVESVGGLVQAGGSLRLSCSDSGSTFKSYAMGWYRQSPGKERELVAAITHRGSTYYADSVKGRFTISRDNAKNTVYVQMNSLKPEDTAVYYCNVRRIGNGRRVDYCGQGTQVTVSS	high polyreactivity
QVQLVESGGGLVQSGGSLRLSCAASGLTFMVYAMGWYRQAPGKEREFVAAITFSGGRTYYADSVKGRFTISRDNAKNTVYLQMNSLKPEDTAVYYCNAEAWSLGYDYWGQGTQVTVSS	low polyreactivity
QVQLVESGGGLVEAGGSHRLTCAASGSTFGWYPIGWYRQAPGTERELVAGINSRGGSTYYADSVKGRFTISRDNAQNTVYLQMNSLKPEDTAVYYCNTVWASRRAHDYWGQGTQVTVSS	high polyreactivity
QVQLVESGGGLVQAGGSLRLSCAASGRIFYINAMGWYRQAPGKERELVAAISWSGSSTYYADSVKGRFTISRDNAKNTIYLQMNSLKPEDTAVYYCATVYYDNHYSAGYDYRGQGTQVTVSS	high polyreactivity
QVQLVESGGGLVQAGGSLRLSCVPPDMGWYRQAPGKERELVAAISRGGITNYADSVKRRFTISRDNAKNTVYLQMNSLKPEDTAVYYCAAEYTYYSYGGNYDYWGQGTQVTVSS	low polyreactivity
QVQLVESGGGLVQAGCSLRLSCSASGSIFYSYAMGWYRQAPGKERELVAAITSVVSTNYADSVKGRFTISRDYAKNTVYLQMNRLKTEDTAVYYCAAGYLRLYYVCLDDSYGYDYWGQGTQVTVSS	low polyreactivity
QVQLVESGGGLVQAGGSLRLSCAASGIIFFYYAMGWYRQAPGKERELVAANSSDGSTYYADSVKGRFTISRDNAKNTVYLQMNSLKPEDTAVYYCAVDHYSARLLARYDYWGQGTQVTVSS	low polyreactivity
QVQLVESGGGLVQAGGSLRLSCAASGSTFGWNAMGWYRKAPGKERELVAAISSYGGITYYADSVKGRFTISRDNEKNTVYLQMNSLKPEDTAVYYCAAERDDDWVNYWGQVTQVTVSS	low polyreactivity
QVQLVASGGGLVQAGGSLRLSCAASGSIFARYALGWYSQAPGKEREWVAALRWSGGRTYYADSVKGRFTISRDNAKNTVYLQMNSLKPEDTAVDYCNAVIHRLGKTYGTNRVDYWGQGTQVTVSS	high polyreactivity
QVQLVESGGGLVQAGGSLRLSCAASGRIFSSYTMGWYRQAPGKERELVATITLRGGRTYYADSVKGRFTISRDNAKNTVYLQMNSLKPEDTAVYYCAATYLTYYHRFNYWGQGTQVTVSS	high polyreactivity
QVQLVESGGGLVQAGGSLLLSCAASGSIFVRNTMGWYRQAPGKERELVAAITSSGGTTYYADSVKGRFTISRDNAKNTVYLQMNSLKPEDTAVYYCAARYGYWGQGTQVTVSS	high polyreactivity
QVQLVESVGGLVQAGGSLRLSCAASGRTFSVYTMGWYRQAPGKERELVASINWSGGRTYYADSVKGRFTISRDNAKNTVYLQMNSLKPEDTAVYYCAATGWRTLYDYWGQGTLVTVSS	high polyreactivity
QVQLVESGGGLVQAGGSLRLSCAASGRNFRDYTMGWYRQAPGKERELVAAITSTGDTNYADSVKGRFTISRDNAKNTVYLQMNSLKPEDTAVYYCATQTGEEYQAPLIYDYWGQGTQVTVSS	low polyreactivity
QVQLVESGGGLVQAGGSLRLSCAPSGSTFYRYAMGWYRQAPGKERELVAAISSSGGRTYYADSVKGRFTISRDNAKNTDYLQMNSLKPEDTAVYYCAADYTKHYWGQGTQVTVSS	high polyreactivity
QVQLVESGGGLVQAGGSLRLSCAASGRIFYYNDMGWYRQAPGKERELVAAITWTDDGTYYADSVKGRFTISRDNAKNTVYLQMNSLKPEDTAVYYCAAESFYGFEYWGQGTQVTVSS	low polyreactivity
QVQLVESGGGLVQAGGSLRLSCAASGGILRQNTMGWYRQAPGKERELVAAISSSGGRTYYADSVKGRFTISRDNAKNTVYLQMNSLKPEDTAVYYCAAEVRLKYRGWTGDYWGQGTQVTVSS	high polyreactivity
QVQLVESGGGLVQAGGSLRLSSAASGIFRWNTKGWYRQAPRKERELVATISWGGGTTYYADSVKGRFTISRDNAKNTVYLQMNSLKPEDTAVYYCAKVYAVRIGMRYSYWGHGTQVTVSS	low polyreactivity
QVQLVESGGGLVQAGGSLRISCAASGFIFYSYPMGWYRQAPGKERELVAAISTSGGSTYYADSVKGRFTISRDNAKNTVYLQMNSLKPEDTAVYYCAVGRKFGRYRVPFVVPYEYWGHGTQVTVSS	high polyreactivity
QVQHVESGGGLVQAGGSLRLSCAASGFIFTAYAMGWYRQAPGKERELVAGIRSGSSTYYADSVKGRFTISRDNAMNTVYLQMNSLKPEDTAVYYCNAEKYNFIYAYEYWGQGTQVTVSS	low polyreactivity
QVQLVESGGGLVQAGGSLRLSCAASGFTYRSYTMGWYRQAPGKERELVAAITSRGTSTYYADSVKGRFTISRDNAKNTVYLQMNSLKPEDTALYYCNAARPGKNYDSWGQGTQVTVSS	high polyreactivity
QVQLVESGGGLVQAGGSLRLSCAASGITFSFYAMGWYRQAPGKERELVAGITRSGGDTYYADSVKGRFTISRDNAKNTVYLQMNSLKPEDTAVYYCAAAWFFYRRQYTFFAGRMDYWGQGTQVTVSS	high polyreactivity
QVQLVESCGGLVQAGGSLRLSCAASGRIFRWYAMGWYRQAPGKERELVARITSGGSTNYADSVKGRFTISRDNAKNTVYLQMNSLKPEDTAVYYCARDWGKSEYEYWGQGTQVTVSS	high polyreactivity

Sequence	polyreactivity (PSR sort gate)
QVQLVESGGGLVQAGGSLRLSCAASGSIFKVYAMGWYRQAPGKEREWVAAITWRGGSTYYADSVKGRFTISRDNAKNTVYLQMKSLKPEDTAVYYCGTEYCWKYDYWGQGTQVTVSS	low polyreactivity
QVQLVESGGGLVQAGGSLRLSCAASGRTFLYNAMGWYRQAPGKERELVAGITQSGSSTYYADSVKGRFTISRDNAKNTVYLQMNSLKPEDTAVYYCAKVLYRRGYKFDYWGQGTQVTVSS	low polyreactivity
QVQLVESGGGLVQAGGSLRLSCAASGITFWTYAMGWYRQAPGKERELVAAISKSGGSTYYADSVKGRFTISRDNAKNTVYLQMNSLKPEDTAVYYCAAKGLRYRDIDYDYWGQGTQVTVSS	low polyreactivity
QVQLVESGGGLVQAGGSLRLSCAASGFTFDSYAMGWYRQAPGKERELVAAITWSGGSTYYADSVKGRFTISRDNAKNTVYLQMMSLKPEDTAVYYCNVYRYDGDYWGQGTQVTVSS	high polyreactivity
QVQLVESGGGLVQAGGSLRLSCAASGSTFRYNAMGWYRQAPGKARELVAAITSGGGTNYADSVKGRFTISRDNAKNTVYLQMNSLNPEDTAVYYCAAPWGLGSELLKRDYWGQGTQVTVSS	low polyreactivity
QVQLVESGGGLVQAGVSLRLSCAASGFIFYRYAMGWYRQAPRKERELVAAISWGGGSTTYYADSVKGRFTISRYNAKNTVYLQMNSLKPEDTAVYYCAKLRYPYLFWDDSEYWGQGTQVTVSS	low polyreactivity
QVQLVESGGGLVQAGGSLRLSCAASGYTFYRYAMGWYRQAPGKERELVAGISRDGGSTYYADSVKGRFTISRDNAKNTVYLQMNSLKPEDTAVYYCAADKTRYRLGRDYWGQGTQVTVSS	low polyreactivity
QVQLQESGGGLVQAGGSLRLSCAASCTISQEDWMGWYRQAPGKEREFVAAIGLGSNTNYADSLKGRFTISRDNAKNTVYLQMNSLKPEDTAVYYCAVTVWQYSDHVYRGQGTQVTVSS	low polyreactivity
QVQLVESGGGLVQAGGSLRLSCAASGLTFFGYTMGWYREAPGKEREFVADITWSGGSTYYADSVKGRFTISRDNAKNTVYLQMNSLKPEDTAVYYCSVAPPNWDPFVDDTYLMDYWGQGTQVTVSS	low polyreactivity
QVQLVESGGGIVQAGGSLRLSCAASGTFVYYAMVMYRQPPGKERELVAGISDGSSTNYADSVKGRFTISRDNAKNTVYLQMNSLKPEDTAVYYCAKRYYSSGREHGYWGQGTQVTVSS	low polyreactivity
QVQLVESGGGLVQAGGSLRLSCAASGSIFRKNAMGWYRQAPGKERELVAAITGTGRTTYADSVKGRFTISRDNAKNTVYLQMNSLKPEDTAVYYCAAEYYYRYSYTNEGDYWGQGTQVTVSS	low polyreactivity
QVQLVESGGGLVQAGGSLRLSCAASGSSFDWYVMGWYRQAPGKERELVAVISRSGGSTYYADSVKGRFTISRDNAKITVYLQMNSLTPEDTAVYSCGADSRSYYRDVDYWGQGTQVTVSS	low polyreactivity
QVQLVESGGGLVQARGSLRLSSAPSGRTFTVYAMGWYRHARGKERELVAAIRRTGSTYYADSVKGRFTISRDNAKNTVYLQMNSLKPEDTAVYYCYARPSTGWSIYGVDYWGQGTQGTVSS	low polyreactivity
QVQLVESGGGLVQAGGSLRLSCAASGITFDVYAMGWYRQAPGKERELVAAISSVGGTYYADSVKGRFTISRDNAKNTVYFQMNSLKPEDTAVYYCNTDGYVGSIRSGLYIYEYWGQGTQVTVSS	low polyreactivity
QVQLVESGGGLVQAGGSLRLSCAASGFILRGYDMGWYRQATGKERELVATITTGGSTYYADSVKGRFTISRDNAKNTVYLQMNSLKPEDTAVYYCAGRRRGSVGVGYANPYNYWGQGTQVTVSS	high polyreactivity
QVQLVESGGGLVQAGGSLRLSCAASGFIFGYYAMGLYRQAPVKERELVAAITSGTGTNYADSVKGRFTISRDNAKNTVYLQMNSLKPEDTAVYYCAAYYTWLSEFGYWGQGTQVTVSS	low polyreactivity
QVQLVESGGGLVQAGGSLRLSCAASGSIFSINTMGWYRQAPGKERELVAAITRSGSGTYYADSVKGRFTISRDNAKNTVYLQMNSLKPEDTAVYYCAKSTAVKPYAYRESGFIYDYWGQGTQVTVSS	low polyreactivity
QVQLVESGGGLVHAGGSLRLSCAASGSIFGANVMGWYRQAPGKERELVAAITRSGTRTYYADSVKGRFTISRDNAKNTVYLQMNSLKPEDTAVYYCAAVLRLSTLTTDFGYWGQGTQVTVSS	high polyreactivity
QVQLVESGGGLVQAGGSLRLSCAASGSTYRLYTMGWYRQAPGKERELVAAITSGGSTNYADSVKGRFTISRDNAKNTVYLQMYSLKPEDTAVYYCAKAKRFPSFDYWGQGTQVTVSS	low polyreactivity
QFQLVESGGGLVQAGGSLRLSCAASGSIFDRNAMGWYRQAPGKERELVAAITSGGSTYYADSVKGRFTISRDNAKNTVYLQMNSLKPEDNAVYYCNADTDPPVPLYYWGQGTQVTVSS	low polyreactivity
QVQLVESGGGLVQAGGSLRLSCAASGSTFLRYVMGWYRQAPGKERELVAAISRRGGSTYYADSVKGRFTISRDNAKNTVYLQMNSLNPEDTAGYYCARTVGYRTLLESDSCGQGTQVTVSS	high polyreactivity
